Paper PMC7235295, “Cytoplasmic TDP43 Binds microRNAs: New Disease Targets in Amyotrophic Lateral Sclerosis”

molecular target: TDP43 (natively folded full-length, ab224788) (UniProt Q13148 1-414); assay: ELISA (immobilized miRNA titration, EC50); 5 nM TDP43; AC/TG nonspecific oligo 1 ug/ml; EMSA: 14 mM Tris pH 8.0, 35 mM KCl, 14 mM NaCl, 1.4 mM MgCl2, 14% glycerol, 0.7 mM DTT, 30 min RT, 5 nM RNA, gel at 4 C; ELISA: 20 mM HEPES pH 7.5, 150 mM NaCl, 1.5 mM MgCl2, 0.05% Tween 20, 0.5 mM DTT, 1 ug/ml AC/TG oligo, 0.2% BSA, 12 h 4 C; conditions: protein: commercial; label: 3'-biotin; single strand
Sequence (Q13148 whole entry): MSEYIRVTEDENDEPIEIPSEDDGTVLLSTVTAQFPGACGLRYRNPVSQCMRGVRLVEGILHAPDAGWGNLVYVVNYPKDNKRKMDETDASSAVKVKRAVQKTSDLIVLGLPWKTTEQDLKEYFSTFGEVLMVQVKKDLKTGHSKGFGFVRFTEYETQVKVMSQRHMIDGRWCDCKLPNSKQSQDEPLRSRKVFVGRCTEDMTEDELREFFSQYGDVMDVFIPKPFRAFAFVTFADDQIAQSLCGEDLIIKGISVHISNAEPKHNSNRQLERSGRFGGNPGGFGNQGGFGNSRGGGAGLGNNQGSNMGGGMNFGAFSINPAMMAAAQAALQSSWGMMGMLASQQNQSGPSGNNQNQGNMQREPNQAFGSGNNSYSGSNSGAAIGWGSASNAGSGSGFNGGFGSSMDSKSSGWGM

| Binder | apparent K (half saturation) |
| --- | --- |
| AAUGGCGCCACUAGGGUUGUG (ssRNA) [miR-652-3p] | 6.41 nM |
| UGAGUGUGUGUGUGUGAGUGUGU (ssRNA) [miR-574-5p (ELISA)] | 2.84 nM |
| UUCCCUUUGUCAUCCUAUGCCU (ssRNA) [miR-204-5p] | 37.7 nM |
